According to US20110059102A1, “Therapeutic Method Targeting Midkine” (NATIONAL UNIVERSITY CORPORATION NAGOYA UNIVERSITY, priority 2009, published 2011):
“Also recorded” adds a separate entry of the source. Like-named read-outs stand apart in the source and are kept apart here.

Columns and labels:
HMVEC-L = test: Ang II concentration in HMVEC-L (conversion from Ang I to Ang II); assay type: cell-based, human; settings: HMVEC-L treated 36 hours with MK 100 ng/ml plus heparin 20 μg/ml or heparin alone, then Ang I added
Method: Ang II concentration in HMVEC-L. After reaching confluence, HMVEC-L were washed with PBS and cultured for 24 hours in essential basal medium containing 0.5% FBS. These cells were exposed to 100 ng/ml rh-MK plus 20 μg/ml heparin or 20 μg/ml heparin alone in essential basal medium containing 0.5% FBS for 36 hours. After stimulation, HMVEC-L were washed with PBS and exposed to 500 pM Ang I (Sigma-Aldrich) for 10 and 25 minutes. Supernatants were collected into chilled tubes, and then the Ang II concentration was measured as previously described (Hypertension. 39:129-134).

PKC = test: Phospho-PKC expression in HMVEC-L by Western blotting; assay type: cell-based, human; settings: exogenous MK 100 ng/ml plus heparin 20 μg/ml
Excerpt: Histology and immunohistochemistry. The removed kidneys and lungs were fixed in 10% buffered formalin, embedded in paraffin, and then cut into 4-10.1 μm sections. The sections were stained with H&E, PAS, and Masson's trichrome. Another tissue sample was embedded in OCT compound (Sakura Finetek) and frozen in liquid nitrogen for immunostaining. Sections were cut to a thickness of 3 μm with a cryostat and fixed in acetone. High-power fields were used to examine the sections for evidence of focal sclerosis (J. Hypertens. 13:1785-1790, J. Lab. Clin. Med. 115:165-173). Glomerular sclerosis was assessed by semiquantitative score (grades 0 to +4) using the method of Raij et al. (Kidney Int. 26:137-143): grade 0, no sclerosis of glomeruli; grade 1, sclerosis of up to 25% of glomerulus; grade 2, sclerosis of 25%-50% of glomerulus; grade 3, sclerosis of 50%-75% of glomerulus; grade 4, sclerosis of 75%-100% of glomerulus. At least 50 glomeruli were evaluated under ×400 magnification and results averaged for each kidney (Mdk^+/+: 2 weeks, n=5; 4 weeks, n=4; 8 weeks, n=4; Mdk^−/−: 2 weeks, n=4; 4 weeks, n=3; 8 weeks, n=3). Immunostaining for ACE and MK was performed on buffered formalin-fixed tissues. […] The lung and kidney section from each mouse was viewed under ×400 magnification, and then macrophages or neutrophils were counted from 10 fields and averaged. […]

ACE [1] = test: ACE expression in HMVEC-L by Western blotting; assay type: cell-based, human; settings: exogenous MK protein 100 ng/ml plus heparin 20 μg/ml
Excerpt: Histology and immunohistochemistry. The removed kidneys and lungs were fixed in 10% buffered formalin, embedded in paraffin, and then cut into 4-10.1 μm sections. The sections were stained with H&E, PAS, and Masson's trichrome. Another tissue sample was embedded in OCT compound (Sakura Finetek) and frozen in liquid nitrogen for immunostaining. Sections were cut to a thickness of 3 μm with a cryostat and fixed in acetone. High-power fields were used to examine the sections for evidence of focal sclerosis (J. Hypertens. 13:1785-1790, J. Lab. Clin. Med. 115:165-173). Glomerular sclerosis was assessed by semiquantitative score (grades 0 to +4) using the method of Raij et al. (Kidney Int. 26:137-143): grade 0, no sclerosis of glomeruli; grade 1, sclerosis of up to 25% of glomerulus; grade 2, sclerosis of 25%-50% of glomerulus; grade 3, sclerosis of 50%-75% of glomerulus; grade 4, sclerosis of 75%-100% of glomerulus. At least 50 glomeruli were evaluated under ×400 magnification and results averaged for each kidney (Mdk^+/+: 2 weeks, n=5; 4 weeks, n=4; 8 weeks, n=4; Mdk^−/−: 2 weeks, n=4; 4 weeks, n=3; 8 weeks, n=3). Immunostaining for ACE and MK was performed on buffered formalin-fixed tissues. Sections were deparaffinized, rehydrated, incubated in 3% hydrogen peroxide in methanol to block endogenous peroxidase, and washed in 10% normal goat serum (Dako) in PBS to block nonspecific binding. Subsequently, sections were incubated with mouse anti-ACE monoclonal antibody (dilution, 1:400; Chemicon International, Millipore) or anti-MK monoclonal antibody (dilution, 1:100) overnight at 4° C. as described previously (22), followed by a conjugate of polyclonal goat anti-mouse IgG antibody and HRP-labeled polymer (Histofine Simple Stain; Nichirei) for 1 hour at room temperature as a secondary antibody. The staining was visualized with 3-3′ diaminobenzidine (Nichirei) to produce a brown color. The sections were covered with 90% glycerol containing p-phenylenediamine and were examined by electron microscopy (H-7100; Hitachi). For double immunofluorescence staining of MK and thrombomodulin as a marker of the vascular endothelium, the cryosections of lungs were first incubated with chicken anti-human MK (dilution, 1:200) and then with rabbit anti-rat thrombomodulin (dilution, 1:1,000) (J. Immunol. 150:5633-5646), followed by incubation with FITC-labeled rabbit anti-chicken IgG (dilution, 1:160) and rhodamine-labeled goat anti-rabbit IgG (dilution, 1:320) as secondary antibodies. […] The lung and kidney section from each mouse was viewed under ×400 magnification, and then macrophages or neutrophils were counted from 10 fields and averaged. […]

[2] = compared with mouse MK produced in L cells; cited from earlier work
ACE [3] = test: rh-MK and -PTN treatment model, ACE expression in the lung by Western blotting; assay type: in vivo; settings: Mdk-/- mice after 5/6 nephrectomy, 1.6 mg/ml, 100 μl by osmotic pump over 14 days
Method: (§1) rh-MK and -PTN treatment model. In the pump study, MK protein in saline (1.6 mg/ml) (n=5), PTN in saline (1.6 mg/ml; n=5), or saline alone (n=5) was infused using an osmotic pump (ALZA Corp.) into Mdk^−/− mice after 5/6 nephrectomy. The pumps continuously infused a total of 100 μl over 14 days. The pumps were implanted under the dorsal skin the next day after 5/6 nephrectomy. Blood pressure was measured by the indirect tail-cuff technique at 0 and 2 weeks after 5/6 nephrectomy. Mice were sacrificed at 2 weeks after 5/6 nephrectomy, and blood and tissue samples were collected.
Western blot analysis. Mouse kidney, lung, brain, heart, and liver tissues were snap-frozen in liquid nitrogen for protein isolation. Western blot analysis was performed as described previously (Br. J. Cancer. 75:354-359). The blots were subsequently incubated with goat anti-human MK antibody (dilution, 1:1,000), monoclonal anti-β-actin antibody (dilution, 1:1,000; Sigma-Aldrich), mouse anti-ACE monoclonal antibody (dilution, 1:1,000; Chemicon International, Millipore), or rabbit anti-phospho-PKC antibody (dilution, 1:1,000; Cell Signaling Technology), followed by incubation with peroxidase-conjugated goat IgG, mouse IgG, or rabbit IgG (dilution, 1:5,000; Jackson Immunoresearch Laboratories Inc.). […] The density of each band was measured using the public domain NIH Image program (http://rsb.info.nih.gov/nih-image/).

[4] = system: Mdk-/- mice after 5/6 nephrectomy; test: rh-MK and -PTN treatment model (osmotic pump), blood pressure by tail-cuff; assay type: in vivo; settings: 1.6 mg/ml, 100 μl by osmotic pump over 14 days
Method: as §1
Blood pressure monitoring. Blood pressure was measured in restrained, conscious mice by the indirect tail-cuff technique under unstressed conditions (BP-98A; Softron) at 0, 2, 4, 6, and 8 weeks after 5/6 nephrectomy (J. Lab. Clin. Med. 78:957-962). Before measurement, the mice were warmed with a heating pad for 5 minutes. A total of 7-10 readings were taken for each mouse, at 1- to 2-minute intervals.

[5] = system: retinal nerve degeneration model; settings: prior injection of midkine; cited from earlier work
[6] = system: acute myocardial infarction model; settings: administration of midkine; cited from earlier work
[7] = system: cerebral ischemia reperfusion insult model; settings: cited from earlier work

B1: MK: recombinant human midkine produced in Pichia pastoris; 13 kDa heparin-binding protein (protein, UniProt P21741 21-143, looked up)
Midkine: VAKKKDKVKKGGPGSECAEWAWGPCTPSSKDCGVGFREGTCGAQTQRIRCRVPCNWKKEFGADCKYKFENWGACDGGTGTKVRQGTLKKARYNAQCQETIRVTKPCTPKTKAKAKAKKGKGKD
**Q.** Which results are given for B1?
**A.** Conversion of Ang I to Ang II (HMVEC-L): converted to Ang II in a time-dependent manner; Phosphorylation levels of PKC (PKC): increased; ACE expression in HMVEC-L (ACE [1]): significantly enhanced; also recorded: induced; Neurotrophic activity [2]: comparable; ACE expression in the lung (ACE [3]): restored; Hypertension (SBP) [4]: restore hypertension; also recorded: restored; Neuronal cell loss [5]: reduced; Apoptotic loss of myocardial cells [6]: reduction; Loss of hippocampal neuronal cells ([7]; post-insult therapeutic administration): ineffective; Loss of hippocampal neuronal cells ([7]; prior ventricular administration of midkine): able to remedy
